What was measured:
OTUB1 (C91S) = OTUB1 (C91S) (human (by the printed UniProt accession), UniProt Q96FW1 1-271, C91S); experiment: ITC
OTUB1 wild-type = OTUB1 wild-type (human (by the printed UniProt accession), UniProt Q96FW1 1-271); experiment: ITC
OTUB1 wild-type, sequence (Q96FW1 whole entry): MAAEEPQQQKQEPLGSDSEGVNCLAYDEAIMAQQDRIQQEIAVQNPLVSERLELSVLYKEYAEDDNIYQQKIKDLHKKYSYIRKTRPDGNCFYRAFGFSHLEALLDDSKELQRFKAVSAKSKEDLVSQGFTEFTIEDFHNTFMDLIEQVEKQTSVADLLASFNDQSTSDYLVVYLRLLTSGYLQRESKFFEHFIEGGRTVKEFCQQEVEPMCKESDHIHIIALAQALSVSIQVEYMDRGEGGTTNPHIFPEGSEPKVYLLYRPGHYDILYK

OTUB1 (C91S), sequence (Q96FW1 whole entry C91S): as the sequence (Q96FW1 whole entry) above, with C91S counted along it

B1: UBE2D1 (enzyme)
chain: not shown
B1: binds (OTUB1 (C91S)); binds (OTUB1 wild-type).

B2: UBE2N (enzyme, human, UniProt P61088 1-152, looked up)
chain: MAGLPRRIIKETQRLLAEPVPGIKAEPDESNARYFHVVIAGPQDSPFEGGTFKLELFLPEEYPMAAPKVRFMTKIYHPNVDKLGRICLDILKDKWSPALQIRTVLLSIQALLSAPNPDDPLANDVAEQWKTNEAQAIETARAWTRLYAMNNI
With B2 the Kd (OTUB1 (C91S)) was 8.1 µM.

B3: UBE2E1 (enzyme, human, UniProt P51965 1-193, looked up)
chain: MSDDDSRASTSSSSSSSSNQQTEKETNTPKKKESKVSMSKNSKLLSTSAKRIQKELADITLDPPPNCSAGPKGDNIYEWRSTILGPPGSVYEGGVFFLDITFTPEYPFKPPKVTFRTRIYHCNINSQGVICLDILKDNWSPALTISKVLLSICSLLTDCNPADPLVGSIATQYMTNRAEHDRMARQWTKRYAT
B3: binds (OTUB1 (C91S)).
